# Measured values reported in PMC9067507, “F/YGG-motif is an intrinsically disordered nucleic-acid binding motif”.
# T1: hnRNPA2 LCD deltaNAID1 (human, UniProt P22626 200-353, del239-306)
# T1 sequence: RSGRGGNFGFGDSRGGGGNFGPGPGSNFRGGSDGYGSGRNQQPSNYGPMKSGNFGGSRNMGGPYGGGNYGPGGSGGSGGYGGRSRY
# T2: hnRNPA2 LCD deltaNAID2 (human, UniProt P22626 200-306, del307-353)
# T2 sequence: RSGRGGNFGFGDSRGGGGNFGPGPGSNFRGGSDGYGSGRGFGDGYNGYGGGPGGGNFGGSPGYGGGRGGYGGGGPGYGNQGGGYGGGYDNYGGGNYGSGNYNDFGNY
# B1: U30 (labelled) (ssRNA)
# RNA: UUUUUUUUUUUUUUUUUUUUUUUUUUUUUU
# Legend:
# Test in all cases: MST; 10 mM MgCl2; MST: 20 mM HEPES pH 7.5, 10 mM MgCl2, 0.05% Tween-20; 420 nM labelled U30 with protein titrated, or labelled peptide with RNA titrated; temperature not stated
# [1] = target: hnRNPA2 LCD (human, UniProt P22626 200-353); conditions: protein: recombinant; tags: 6xHis removed by TEV
# Chain of hnRNPA2 LCD (P22626 200-353): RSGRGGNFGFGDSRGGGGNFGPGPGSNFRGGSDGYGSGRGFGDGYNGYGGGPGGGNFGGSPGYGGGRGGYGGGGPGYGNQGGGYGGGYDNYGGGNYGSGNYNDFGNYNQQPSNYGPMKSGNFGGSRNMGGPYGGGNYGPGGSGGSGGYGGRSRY
# [2] = target: T1, hnRNPA2 LCD deltaNAID1; conditions: protein: recombinant; (stated for LCD only)
# [3] = target: T2, hnRNPA2 LCD deltaNAID2; conditions: protein: recombinant; (stated for LCD only)
binder,measurement,setting,value
B1,Kd,[1],0.72 ± 0.002 µM
same,Kd,[2],41 ± 1.4 µM
same,Kd,[3],13 ± 3 µM
